Two molecules from patent EP4592315A1 (Biotheus Inc., dated 2024) can be followed below.

In one assay the target is T1, human 4-1BB (human, UniProt Q07011 24-255).
T1 construct: whole, on cells; also called h4-1BB; CD137
The assay can be described thus: flow cytometry on CHOS-h4-1BB cells (overexpressing human 4-1BB), anti-human IgG-Fc PE. Background: In flow cytometry, cells or beads pass a laser one at a time.

A further assay addresses T2, human FcγRIIb (human, UniProt P31994 43-310).
T2 construct: whole, on cells; also called hCD32b; CD32b
T2 sequence (looked up): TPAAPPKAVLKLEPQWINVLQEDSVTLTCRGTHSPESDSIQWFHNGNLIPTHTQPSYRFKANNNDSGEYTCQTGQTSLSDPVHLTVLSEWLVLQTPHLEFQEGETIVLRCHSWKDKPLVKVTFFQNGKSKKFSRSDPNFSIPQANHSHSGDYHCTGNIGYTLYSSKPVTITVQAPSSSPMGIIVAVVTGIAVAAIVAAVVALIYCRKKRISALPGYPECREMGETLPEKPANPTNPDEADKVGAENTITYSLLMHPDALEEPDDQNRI
The assay can be described thus: flow cytometry on CHOS-hCD32b cells (overexpressing human FcγRIIb), anti-human IgG-Fc PE.

T1 sequence (Q07011 24-255): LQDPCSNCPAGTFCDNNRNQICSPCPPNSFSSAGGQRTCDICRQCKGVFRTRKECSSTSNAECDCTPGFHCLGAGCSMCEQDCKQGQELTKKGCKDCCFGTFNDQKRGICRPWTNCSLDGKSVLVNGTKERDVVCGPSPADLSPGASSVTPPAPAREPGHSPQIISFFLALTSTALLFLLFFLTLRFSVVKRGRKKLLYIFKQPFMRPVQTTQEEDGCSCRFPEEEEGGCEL

B1: HER2xHER2x4-1BB-1 (bispecific antibody, human IgG1, kappa)
heavy 1: not shown
light 1: DIQMTQSPSSLSASVGDRVTITCRASQSVQGAVAWYQQKPGKAPKLLIYSASFLYSGVPSRFSGSRSGTDFTLTISSLQPEDFATYYCQQHSTTPPTFGQGTKVEIKRTVAAPSVFIFPPSDEQLKSGRASVVCLLNNFYPREAKVQWKVDNALQSGNSQESVTEQDSKDSTYSLSSRLQLSKADYEKHKVYACEVTHQGLSSPVTKSFNRGEC
heavy 2: not shown
light 2: DIQMTQSPSSLSASVGDRVTITCKASQDVSIGVAWYQQKPGKAPKLLIYSASYRYTGVPSRFSGSGSGTDFTLTISSLQPEDFATYYCQQYYIYPYTFGQGTKVEIKRTVAAPSVFIFPPSDEELKSGTASVQCLLNNFYPREAKVQWKVDNALQSGNSQESVTEQDSKDSTYSLSSELTLSKADYEKHKVYACEVTHQGLSSPVTKSFNRGEC
notes: also called HER2×HER2×4-1BB-1; HER2 × HER2 × 4-1BB-1
On to B1, for which the EC50 worked out at 6.99 nM with human 4-1BB and 1.06 nM with human FcγRIIb.

B2: Urelumab (antibody, human IgG4 S228P, kappa)
heavy: not shown
light: not shown
notes: also called Urelumab Analog; copies: 2 + 2
Turning to B2, the midpoint of the response in the assay with human 4-1BB, the EC50, lay at 0.316 nM.

As a reminder, the EC50 is the concentration that produces a half-maximal response. A lower EC50 goes with greater potency.
